# Experimental data reported in article PMC4476568.
# Values joined by “and” are separate entries in the source; they are usually repeats but may differ in a detail not shown here. Equal entries are not always repeated.
# Molecular target: EGFP-labeled nuclear transport factor 2 (NTF2) (human) (UniProt P61970)
# Experiment: fluorescence fluctuation spectroscopy brightness analysis (MSQ with z-scan FFS); living E. coli cells in agarose; two-photon excitation at 1000 nm, ~1 mW, focus at the geometric centre of the cell; MSQ-curve fit to Eqs 14 and 22; normalized brightness against EGFP in solution, corrected for cell geometry
substance,measurement,value
EGFP-labeled nuclear transport factor 2 (NTF2) (from UniProt P61970 1-127) (natural protein; other documents disagree on this pair),stoichiometry N,2.1 and 1.94
